The target of test [1] is T1, purified recombinant human Napi2b antigen consisting of Napi2b-extracellular-loop2 expressed as … (human, UniProt O95436 234-362, limits assumed).
T1 construct: Expressed in Expi-HEK293 cells; also called immobilized human NaPi2B; not shown: Fc part; 6-His tag
T1 sequence: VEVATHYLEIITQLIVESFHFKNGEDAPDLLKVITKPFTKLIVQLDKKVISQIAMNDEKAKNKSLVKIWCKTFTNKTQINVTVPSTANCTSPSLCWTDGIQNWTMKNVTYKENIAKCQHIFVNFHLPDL
The experiment in a line: ELISA on the isolated immobilized protein; table column Binding KD (nmol/L), ELISA.

The target of test [2] is T2, HEK293 cyno-NaPi2B-mCherry (Macaca fascicularis, UniProt A0A2K5UHY1).
T2 construct: full-length mCherry fusion stably expressed on HEK293 cells; also called cynomolgus full-length NaPi2b-mCherry on HEK293 cells
T2 sequence (target on cells): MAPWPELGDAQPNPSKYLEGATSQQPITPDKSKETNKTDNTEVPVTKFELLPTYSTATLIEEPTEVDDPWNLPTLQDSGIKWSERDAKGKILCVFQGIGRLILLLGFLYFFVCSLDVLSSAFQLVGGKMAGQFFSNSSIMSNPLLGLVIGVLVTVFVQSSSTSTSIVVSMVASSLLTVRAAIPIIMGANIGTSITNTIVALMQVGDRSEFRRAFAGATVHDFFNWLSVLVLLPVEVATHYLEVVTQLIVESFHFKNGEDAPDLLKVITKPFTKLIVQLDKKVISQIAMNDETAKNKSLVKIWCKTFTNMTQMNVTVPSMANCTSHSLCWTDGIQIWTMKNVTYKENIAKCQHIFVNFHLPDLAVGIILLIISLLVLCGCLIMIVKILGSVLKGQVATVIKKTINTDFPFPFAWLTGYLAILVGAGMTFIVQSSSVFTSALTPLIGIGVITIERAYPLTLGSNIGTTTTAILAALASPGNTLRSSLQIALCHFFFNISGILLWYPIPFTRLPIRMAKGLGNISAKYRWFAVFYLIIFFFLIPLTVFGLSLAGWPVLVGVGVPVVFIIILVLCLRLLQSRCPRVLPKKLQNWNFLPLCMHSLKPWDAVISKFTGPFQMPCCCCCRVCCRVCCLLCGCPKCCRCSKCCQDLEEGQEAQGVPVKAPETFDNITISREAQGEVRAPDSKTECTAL
The experiment in a line: flow cytometry on HEK293 cells stably expressing cynomolgus full-length NaPi2b-mCherry, Alexa-dye anti-human IgG H+L secondary antibody, MFI ratio, one-site specific binding fit; the Kd table prints no unit, the concentration axis is in nM.
Text: (§1) HEK293 cells stably overexpressing human and rat Napi2b were generated by stable integration of a human or rat full-length Napi2b-mCherry-(GGGS)3x-mCherry expression construct under control of a human EF1 promoter and a Puromycin-selection cassette under a CMV promoter into the parental HEK293 cell line. In brief, cells were transfected with the linearized plasmids using Lipfectamine 2000 (Thermo Fisher) and selected with Puromycin antibiotic. Cells were then single cell cloned in 96-well plates via serial dilution under continuous antibiotic selection. Clones were screened for target expression via flow cytometry and mCherry fluorescence via flow cytometry and fluorescence microscopy. Target- and mCherry-positive clones were expanded and used for further experiments. […] Binding of antibodies was investigated on mCherry-positive cells. Mean fluorescence intensity (MFI) ratios were normalized to the secondary antibody control. The assay was performed in duplicates and data points were analyzed by a non-linear regression using a one-site specific binding model to derive KD values using Prism 9 software.

Test [3] addresses T3, human Napi2a-mCherry on HEK293 cells (human, UniProt Q06495 1-639).
T3 construct: whole, on cells; also called Napi2a (SLC34A1); not shown: mCherry fusion
T3 sequence (looked up): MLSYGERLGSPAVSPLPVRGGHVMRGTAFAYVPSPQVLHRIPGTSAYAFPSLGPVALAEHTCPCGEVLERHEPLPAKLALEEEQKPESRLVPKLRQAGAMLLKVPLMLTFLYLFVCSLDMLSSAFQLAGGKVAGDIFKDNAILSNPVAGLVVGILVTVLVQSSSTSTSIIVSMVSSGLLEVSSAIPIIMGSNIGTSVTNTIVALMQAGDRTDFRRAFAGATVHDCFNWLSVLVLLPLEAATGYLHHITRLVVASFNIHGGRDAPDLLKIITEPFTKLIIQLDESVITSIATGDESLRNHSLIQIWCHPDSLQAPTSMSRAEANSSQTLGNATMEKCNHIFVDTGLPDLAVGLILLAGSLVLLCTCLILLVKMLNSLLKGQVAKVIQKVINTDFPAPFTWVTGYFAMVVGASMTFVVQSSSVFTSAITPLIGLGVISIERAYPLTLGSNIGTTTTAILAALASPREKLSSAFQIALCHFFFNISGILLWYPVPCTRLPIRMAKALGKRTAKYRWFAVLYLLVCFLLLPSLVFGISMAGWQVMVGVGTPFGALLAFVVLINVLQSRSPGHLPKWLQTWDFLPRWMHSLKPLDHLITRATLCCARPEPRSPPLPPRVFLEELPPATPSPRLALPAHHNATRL
Nature of the test: flow cytometry on HEK293 cells expressing human Napi2a-mCherry (panel Napi2a-HEK293), MFI ratio to the non-specific binding control.

Test [4] concerns the target T4, HEK293 rat-NaPi2B-mCherry (Rattus norvegicus, UniProt Q9JJ09).
T4 construct: full-length mCherry fusion stably expressed on HEK293 cells; also called rat full-length NaPi2b-mCherry on HEK293 cells
T4 sequence (target on cells, looked up): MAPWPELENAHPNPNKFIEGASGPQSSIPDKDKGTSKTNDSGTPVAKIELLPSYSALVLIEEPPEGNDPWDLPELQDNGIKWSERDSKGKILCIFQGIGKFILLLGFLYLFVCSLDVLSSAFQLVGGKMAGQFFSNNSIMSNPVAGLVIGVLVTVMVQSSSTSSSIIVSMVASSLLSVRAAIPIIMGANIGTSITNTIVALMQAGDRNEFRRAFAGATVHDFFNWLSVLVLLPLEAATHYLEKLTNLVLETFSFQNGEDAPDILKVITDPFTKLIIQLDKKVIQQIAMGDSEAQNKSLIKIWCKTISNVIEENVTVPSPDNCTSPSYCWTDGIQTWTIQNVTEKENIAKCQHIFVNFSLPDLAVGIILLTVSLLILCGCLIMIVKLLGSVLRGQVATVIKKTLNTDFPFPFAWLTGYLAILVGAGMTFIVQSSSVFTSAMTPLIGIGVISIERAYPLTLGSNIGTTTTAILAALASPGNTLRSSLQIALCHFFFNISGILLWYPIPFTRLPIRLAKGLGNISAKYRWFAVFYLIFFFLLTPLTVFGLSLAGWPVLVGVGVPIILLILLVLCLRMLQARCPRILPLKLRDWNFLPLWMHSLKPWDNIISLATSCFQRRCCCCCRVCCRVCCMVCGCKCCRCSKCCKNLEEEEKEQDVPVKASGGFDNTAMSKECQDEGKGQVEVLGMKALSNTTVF
Nature of the test: flow cytometry on HEK293 cells stably expressing rat full-length NaPi2b-mCherry, Alexa-dye anti-human IgG H+L secondary antibody, MFI ratio, one-site specific binding fit; the Kd table prints no unit, the concentration axis is in nM.
Text: as §1

B1: AV25 mAb, LALA-silenced (AV25 HC-LALA) (antibody, human IgG1, kappa, L234A L235A)
heavy: not shown
light: DIQMTQSPSSLSASVGDRVTITCSASQDIGNFLNWYQQKPGKTVKVLIYYASSLYSGVPSRFSGSGSGTDYTLTISSLQPEDFATYYCQQYSKLPLTFGQGTKLELKRTVAAPSVFIFPPSDEQLKSGTASVVCLLNNFYPREAKVQWKVDNALQSGNSQESVTEQDSKDSTYSLSSTLTLSKADYEKHKVYACEVTHQGLSSPVTKSFNRGEC
notes: also called unmodified AV25 mAb
For the molecule B1, the values for the Kd in test [1], in test [2] and in test [4] were 0.071 nM, 1.43 nM and 0.539 nM, respectively. In addition, the binding result in test [3] is “no binding (tested: 200 nM)”.
